Results as given in patent publication US20210087281A1 (AGOMAB THERAPEUTICS, published 2021).
One block for each binder: values may come before it.

Legend:
[1] = target: T1, native mouse MET on living cells (mouse, UniProt P16056 25-1379); experiment: cell-based or functional assay
[2] = target: T2, native human MET on living cells (human, UniProt P08581 25-1390); experiment: cell-based or functional assay
[3] = target: T3, human MET-Fc (R&D Systems) (human, UniProt P08581 25-932); experiment: competition ELISA, hMET-Fc in solid phase, competitor 0.3 nM biotinylated hHGF
T3 construct: extracellular domain; bought chimeric protein; also called hMET; not shown: Fc portion of human IgG1
T3 sequence (P08581 25-932): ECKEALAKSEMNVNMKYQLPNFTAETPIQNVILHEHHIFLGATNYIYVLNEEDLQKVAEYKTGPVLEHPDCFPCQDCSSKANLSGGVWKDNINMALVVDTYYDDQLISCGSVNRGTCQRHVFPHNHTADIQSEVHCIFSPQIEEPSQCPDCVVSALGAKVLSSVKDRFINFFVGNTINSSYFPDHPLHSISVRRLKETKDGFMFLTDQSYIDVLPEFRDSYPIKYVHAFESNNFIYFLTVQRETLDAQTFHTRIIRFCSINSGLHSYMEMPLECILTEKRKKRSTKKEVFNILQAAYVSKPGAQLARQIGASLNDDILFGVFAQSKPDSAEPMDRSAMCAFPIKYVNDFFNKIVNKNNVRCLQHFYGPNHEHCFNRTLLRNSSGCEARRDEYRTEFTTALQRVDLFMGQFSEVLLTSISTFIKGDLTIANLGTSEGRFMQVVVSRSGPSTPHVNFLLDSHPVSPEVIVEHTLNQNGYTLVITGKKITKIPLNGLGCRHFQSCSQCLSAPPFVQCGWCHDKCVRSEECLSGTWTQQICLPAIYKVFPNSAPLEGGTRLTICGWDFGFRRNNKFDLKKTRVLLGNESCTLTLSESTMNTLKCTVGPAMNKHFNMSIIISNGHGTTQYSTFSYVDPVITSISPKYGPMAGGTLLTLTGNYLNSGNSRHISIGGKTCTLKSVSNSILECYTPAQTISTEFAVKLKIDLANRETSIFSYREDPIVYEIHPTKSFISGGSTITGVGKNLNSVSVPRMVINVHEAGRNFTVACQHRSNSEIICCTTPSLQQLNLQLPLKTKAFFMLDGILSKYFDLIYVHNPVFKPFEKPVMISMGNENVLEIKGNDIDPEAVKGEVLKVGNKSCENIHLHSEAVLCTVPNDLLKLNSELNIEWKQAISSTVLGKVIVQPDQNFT
Summary of the method: (§1)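 Values are IC₅₀, the antibody level reaching half-maximal competition, and IMAX, the highest percent competition at saturation. Each antibody was added from 0 to 120 nM alongside HGF labelled at the N-terminus with NHS-LC-biotin, on immobilized MET-Fc.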

[4] = target: T1, native mouse MET on living cells; experiment: cell-based or functional assay; remark: listed apart in the source
[5] = target: T2, native human MET on living cells; experiment: cell-based or functional assay; remark: listed apart in the source
[6] = target: T1, native mouse MET on living cells; experiment: flow cytometry, MLP29 cells
Summary of the method: (§2)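 Detection used a phycoerythrin-labelled anti-human IgG1 secondary and flow cytometry, measuring binding of chimeric antibodies to native MET on live A549 (human) or MLP29 (mouse) cells. Positive controls were a mouse anti-human MET and a goat anti-mouse MET antibody, each with a PE-labelled secondary.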

[7] = target: T1, native mouse MET on living cells; experiment: cell-based or functional assay; remark: listed apart in the source
[8] = target: T2, native human MET on living cells; experiment: cell-based or functional assay; remark: listed apart in the source
[9] = target: T4, mouse MET-Fc (R&D Systems) (mouse, UniProt P16056 25-929, limits assumed); experiment: competition ELISA, mMET-Fc in solid phase, competitor 0.3 nM biotinylated mHGF
T4 construct: bought chimeric protein; also called mMET; not shown: Fc part
Summary of the method: as §1

[10] = target: human MET ECD mutant E (mutations 2, 3, 4) (human) (UniProt P08581); experiment: ELISA, MET ECD in solid phase, mAb 0-50 nM
[11] = target: human MET ECD mutant A (mutations 1, 2, 3) (human) (UniProt P08581); experiment: ELISA, MET ECD in solid phase, mAb 0-50 nM
[12] = target: human MET ECD mutant H (mutations 2, 4) (human) (UniProt P08581); experiment: ELISA, MET ECD in solid phase, mAb 0-50 nM
[13] = target: human MET ECD mutant D (mutations 1, 2) (human) (UniProt P08581); experiment: ELISA, MET ECD in solid phase, mAb 0-50 nM
human MET ECD [14] = target: T5, human MET ECD (human, UniProt P08581 25-932); experiment: ELISA, MET ECD in solid phase, mAb 0-50 nM
T5 construct: range 1-932; recombinant ECD made by the applicants; the stated range begins at residue 1, so it includes the signal peptide of the entry; also called hMET; hMET ECD
T5 sequence (P08581 25-932 limits assumed, form in doubt): as the sequence (P08581 25-932) above
Description: Using human MET as a template, we mutagenized each of these residues in different permutations, generating a series of MET mutants that are fully human except for specific residues, which are llama. Next, we tested the affinity of selected SEMA-binding mAbs (71D6, 71C3, 71D4, 71A3, 71G2) and PSI-binding mAbs (76H10 and 71G3) for these MET mutants by ELISA. To this end, the various MET proteins were immobilized in solid phase (100 ng/well in a 96-well plate) and then exposed to increasing concentrations of antibodies (0-50 nM) solution. […] Wild-type human MET was used as positive control.
TABLE 18 The epitopes of MET responsible for agonistic antibody binding represent residues conserved among H. sapiens, M. musculus, R. norvegicus, M. fascicularis but not among the same species and L. glama. The relevance of residues conserved among human, mouse, rat, cynomolgus monkey but not llama MET for binding to agonistic mAbs was tested by ELISA. Wild-type (WT) or mutant (MT) human MET ECD was immobilized in solid phase and exposed to increasing concentrations of mAbs in solution. […] All binding values were normalized to the WT protein and are expressed as % binding (EMAX) compared to WT MET.

[15] = target: T2, native human MET on living cells; experiment: flow cytometry, A549 cells
Summary of the method: as §2

human MET ECD [16] = target: T5, human MET ECD; experiment: ELISA, MET ECD in solid phase, mAb 0-20 nM
Summary of the method: (§3)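 First, chimeric IgG1 (llama variable, human constant) was produced transiently in mammalian cells. Next, it was purified on protein A. Finally, graded antibody concentrations in solution were applied to plate-bound MET ECD and binding was read by ELISA.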

mouse MET ECD = target: T6, mouse MET ECD (mouse, UniProt P16056 25-931); experiment: ELISA, MET ECD in solid phase, mAb 0-20 nM
T6 construct: range 1-931; recombinant ECD made by the applicants; the stated range begins at residue 1; also called mMET; mMET ECD
Summary of the method: as §3

[17] = target: T1, native mouse MET on living cells; experiment: cell-based or functional assay; remark: listed apart in the source
[18] = target: T2, native human MET on living cells; experiment: cell-based or functional assay; remark: listed apart in the source

T2 sequence (P08581 25-1390): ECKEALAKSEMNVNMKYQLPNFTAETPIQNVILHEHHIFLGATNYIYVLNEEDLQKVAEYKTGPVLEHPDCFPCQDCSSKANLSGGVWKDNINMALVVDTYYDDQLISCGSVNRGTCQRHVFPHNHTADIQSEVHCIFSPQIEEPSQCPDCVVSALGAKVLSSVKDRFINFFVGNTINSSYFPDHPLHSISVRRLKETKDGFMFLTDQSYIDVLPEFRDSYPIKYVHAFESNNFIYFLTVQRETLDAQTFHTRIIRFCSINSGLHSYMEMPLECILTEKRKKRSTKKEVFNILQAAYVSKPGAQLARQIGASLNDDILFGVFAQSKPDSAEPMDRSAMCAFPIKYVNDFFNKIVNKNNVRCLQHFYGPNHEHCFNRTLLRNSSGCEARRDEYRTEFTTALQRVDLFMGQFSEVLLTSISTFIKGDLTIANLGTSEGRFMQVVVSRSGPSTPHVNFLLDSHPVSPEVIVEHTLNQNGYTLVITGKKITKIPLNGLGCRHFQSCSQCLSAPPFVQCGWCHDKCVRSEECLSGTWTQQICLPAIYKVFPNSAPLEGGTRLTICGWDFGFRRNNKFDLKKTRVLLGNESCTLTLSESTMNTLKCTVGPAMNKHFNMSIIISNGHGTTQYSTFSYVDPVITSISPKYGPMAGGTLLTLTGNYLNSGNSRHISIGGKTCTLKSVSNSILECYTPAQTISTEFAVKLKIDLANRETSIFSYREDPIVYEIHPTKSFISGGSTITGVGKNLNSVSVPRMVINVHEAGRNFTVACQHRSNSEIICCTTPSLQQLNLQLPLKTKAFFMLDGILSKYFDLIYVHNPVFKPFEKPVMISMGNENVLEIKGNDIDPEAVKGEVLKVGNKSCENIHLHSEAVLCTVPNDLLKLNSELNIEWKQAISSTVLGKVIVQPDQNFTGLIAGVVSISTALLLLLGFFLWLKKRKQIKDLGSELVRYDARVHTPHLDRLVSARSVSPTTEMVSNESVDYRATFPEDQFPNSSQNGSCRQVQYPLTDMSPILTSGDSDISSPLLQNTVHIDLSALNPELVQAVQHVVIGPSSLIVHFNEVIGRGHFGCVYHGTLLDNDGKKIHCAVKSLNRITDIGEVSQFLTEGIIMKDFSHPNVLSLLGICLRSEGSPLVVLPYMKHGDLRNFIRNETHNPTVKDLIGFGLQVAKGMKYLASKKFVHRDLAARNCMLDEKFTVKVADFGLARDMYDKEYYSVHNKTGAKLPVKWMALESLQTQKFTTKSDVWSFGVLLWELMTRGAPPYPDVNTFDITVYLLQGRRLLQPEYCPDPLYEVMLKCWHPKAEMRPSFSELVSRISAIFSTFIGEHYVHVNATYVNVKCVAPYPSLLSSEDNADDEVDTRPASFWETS

IC50 [3]: 510 pM
IMAX [3]: 93.4%
branches per spheroid, MLP29 cells, 0.5 nM [4]: 30.3 branches
branches per spheroid, MLP29 cells, 2.5 nM [4]: 42 branches
branches per spheroid, MLP29 cells, 12.5 nM [4]: 42.7 branches
branches per spheroid, LOC cells, 0.5 nM [5]: 24 branches
branches per spheroid, LOC cells, 2.5 nM [5]: 30.3 branches
branches per spheroid, LOC cells, 12.5 nM [5]: 31.3 branches
EC50 [6]: 811 pM
EMAX [6]: 144 % relative to control
scatter score 0-4, MLP29, 0.001 nM [7]: 0 score
scatter score 0-4, MLP29, 0.004 nM [7]: 0 score
scatter score 0-4, MLP29, 0.012 nM [7]: 2 score
scatter score 0-4, MLP29, 0.037 nM [7]: 3 score
scatter score 0-4, MLP29, 0.111 nM [7]: 3 score
scatter score 0-4, MLP29, 0.333 nM [7]: 4 score
scatter score 0-4, MLP29, 1.000 nM [7]: 4 score
scatter score 0-4, MLP29, 3.000 nM [7]: 4 score
scatter score 0-4, MLP29, 9.000 nM [7]: 4 score
scatter score 0-4, HPAF-II, 0.001 nM [8]: 0 score
scatter score 0-4, HPAF-II, 0.004 nM [8]: 0 score
scatter score 0-4, HPAF-II, 0.012 nM [8]: 2 score
scatter score 0-4, HPAF-II, 0.037 nM [8]: 3 score
scatter score 0-4, HPAF-II, 0.111 nM [8]: 3 score
scatter score 0-4, HPAF-II, 0.333 nM [8]: 4 score
scatter score 0-4, HPAF-II, 1.000 nM [8]: 4 score
scatter score 0-4, HPAF-II, 3.000 nM [8]: 4 score
scatter score 0-4, HPAF-II, 9.000 nM [8]: 4 score
IC50 [9]: 540 pM
IMAX [9]: 87.7%
% binding (EMAX) compared to WT MET [10]: 65.4 % WT MET ECD
% binding (EMAX) compared to WT MET [11]: 117 % WT MET ECD
% binding (EMAX) compared to WT MET [12]: 76.7 % WT MET ECD
% binding (EMAX) compared to WT MET [13]: 128 % WT MET ECD
% binding (EMAX) compared to WT MET (human MET ECD [14]): 100 % WT MET ECD
EC50 [15]: 514 pM
EMAX [15]: 161 % relative to control
EC50 (human MET ECD [16]): 229 pM
EMAX (OD450) (human MET ECD [16]): 2.4 AU
EC50 (mouse MET ECD): 176 pM
EMAX (OD450) (mouse MET ECD): 2.73 AU
phospho-MET ELISA EC50, MLP29 cells [17]: 260 pM
phospho-MET ELISA EMAX (% HGF activity), MLP29 cells [17]: 96%
phospho-MET ELISA EC50, A549 cells [18]: 310 pM
phospho-MET ELISA EMAX (% HGF activity), A549 cells [18]: 86.6%
B1: 71A3 chimeric llama-human IgG1 mAb (antibody, V domains shown)
VH: EVQLVESGGGLVQPGGSLRLSCAASGFSFKDYDITWVRQAPGKGLEWVSTITSRSGSTSYVDSVKGRFTISGDNAKNTLYLQMNSLKPEDTAVYYCAKVYATTWDVGPLGYGMDYWGKGTLVTVSS
VL: SYELTQPSALSVTLGQTAKITCQGGSLGSSYAHWYQQKPGQAPVLVIYDDDSRPSGIPERFSGSSSGGTATLTISGAQAEDEGDYYCQSADSSGNAAVFGGGTHLTVL
notes: llama VH on human IgG1 CH1-CH2-CH3, llama VL on human lambda CL
protection from staurosporine, viability EC50, MLP29 cells [1]: < 500 pM
protection from staurosporine, viability EMAX, MLP29 cells [1]: 70.5%
protection from staurosporine, viability EC50, MCF10A cells [2]: < 500 pM
protection from staurosporine, viability EMAX, MCF10A cells [2]: 71.7%

IC50 [3]: 230 pM
IMAX [3]: 97.8%
branches per spheroid, MLP29 cells, 0.5 nM [4]: 34 branches
branches per spheroid, MLP29 cells, 2.5 nM [4]: 46.3 branches
branches per spheroid, MLP29 cells, 12.5 nM [4]: 45 branches
branches per spheroid, LOC cells, 0.5 nM [5]: 25.3 branches
branches per spheroid, LOC cells, 2.5 nM [5]: 29.3 branches
branches per spheroid, LOC cells, 12.5 nM [5]: 31.7 branches
EC50 [6]: 688 pM
EMAX [6]: 130 % relative to control
scatter score 0-4, MLP29, 0.001 nM [7]: 0 score
scatter score 0-4, MLP29, 0.004 nM [7]: 0 score
scatter score 0-4, MLP29, 0.012 nM [7]: 1 score
scatter score 0-4, MLP29, 0.037 nM [7]: 2 score
scatter score 0-4, MLP29, 0.111 nM [7]: 4 score
scatter score 0-4, MLP29, 0.333 nM [7]: 4 score
scatter score 0-4, MLP29, 1.000 nM [7]: 4 score
scatter score 0-4, MLP29, 3.000 nM [7]: 4 score
scatter score 0-4, MLP29, 9.000 nM [7]: 4 score
scatter score 0-4, HPAF-II, 0.001 nM [8]: 0 score
scatter score 0-4, HPAF-II, 0.004 nM [8]: 1 score
scatter score 0-4, HPAF-II, 0.012 nM [8]: 2 score
scatter score 0-4, HPAF-II, 0.037 nM [8]: 3 score
scatter score 0-4, HPAF-II, 0.111 nM [8]: 4 score
scatter score 0-4, HPAF-II, 0.333 nM [8]: 4 score
scatter score 0-4, HPAF-II, 1.000 nM [8]: 4 score
scatter score 0-4, HPAF-II, 3.000 nM [8]: 4 score
scatter score 0-4, HPAF-II, 9.000 nM [8]: 4 score
IC50 [9]: 260 pM
IMAX [9]: 91.9%
% binding (EMAX) compared to WT MET [10]: 41.4 % WT MET ECD
% binding (EMAX) compared to WT MET [11]: 92.1 % WT MET ECD
% binding (EMAX) compared to WT MET [12]: 40.2 % WT MET ECD
% binding (EMAX) compared to WT MET [13]: 114 % WT MET ECD
% binding (EMAX) compared to WT MET (human MET ECD [14]): 100 % WT MET ECD
EC50 [15]: 604 pM
EMAX [15]: 144 % relative to control
EC50 (human MET ECD [16]): 112 pM
EMAX (OD450) (human MET ECD [16]): 3.09 AU
EC50 (mouse MET ECD): 101 pM
EMAX (OD450) (mouse MET ECD): 3.17 AU
phospho-MET ELISA EC50, MLP29 cells [17]: 250 pM
phospho-MET ELISA EMAX (% HGF activity), MLP29 cells [17]: 110%
phospho-MET ELISA EC50, A549 cells [18]: 370 pM
phospho-MET ELISA EMAX (% HGF activity), A549 cells [18]: 101%
B2: 71G2 chimeric llama-human IgG1 mAb (antibody, V domains shown)
VH: EVQLQESGGGLVQPGGSLRLSCAASGFTFSIYDMSWVRQAPGKGLEWVSTINSDGSSTSYVDSVKGRFTISRDNAKNTLYLQMNSLKPEDTAVYYCAKVYGSTWDVGPMGYGMDYWGKGTLVTVSS
VL: SSALTQPSALSVSLGQTARITCQGGSLGSSYAHWYQQKPGQAPVLVIYGDDSRPSGIPERFSGSSSGGTATLTISGAQAEDEDDYYCQSTDSSGNTVFGGGTRLTVL
notes: as for B1
protection from staurosporine, viability EC50, MLP29 cells [1]: 1990 pM
protection from staurosporine, viability EMAX, MLP29 cells [1]: 58.3%
protection from staurosporine, viability EC50, MCF10A cells [2]: 1060 pM
protection from staurosporine, viability EMAX, MCF10A cells [2]: 64.8%
